Source: patent publication US20030028002A1, “Cyclin D binding factor, and uses thereof” (published 2003)
One block for each binder: values may come before it.

Key:
cyclin D1 = molecular target: T1, cyclin D1 (mouse, UniProt P25322 1-295); assay: anti-Flag immunoprecipitation from Sf9 lysates, Western blot for cyclin D1
T1 construct: 35S-labelled in vitro translation product in the pull-down; baculovirus product in Sf9 cells
Excerpt: The series of DMP1 deletion mutants and the K319E point mutant were then used to determine the cyclin D binding domain of DMP1. Expression vectors encoding murine wild-type DMP1, the corresponding deletion mutations, or K319E (i. e., wildtype DMP1 and M1-M11, defined in FIG. 10, Table 1) were cotransfected with an expression vector encoding cyclin D1 into SF9 cells. Wildtype DMP1 and M1-M11 were expressed containing Flag-tags. SF9 lysates were immunoprecipitated with an antibody raised against the Flag-tag. The immunoprecipitates were resolved individually by gel electrophoresis, and then Western blotted with an antibody raised against cyclin D1. […] Therefore, the cyclin D1 binding domain is missing in the M9 deletion mutant. […] Therefore, deletion of the N-terminal domain of DMP1 (i.e., amino acids 1-223) abrogates its ability to interact with D-type cyclins, and thus, the region of DMP1 from residues 1-223 contains a specific cyclin D interaction motif required for D-type cyclin-DMP1 association.

cyclin D2-DMP1 complex = molecular target: T2, cyclin D2-DMP1 complex (mouse, UniProt P30280 1-289); assay: coinfected Sf9 cells, immunoprecipitation with antiserum to DMP1
T2 construct: Complex formed in coinfected Sf9 cells
T2 sequence (P30280 whole entry, one chain of several): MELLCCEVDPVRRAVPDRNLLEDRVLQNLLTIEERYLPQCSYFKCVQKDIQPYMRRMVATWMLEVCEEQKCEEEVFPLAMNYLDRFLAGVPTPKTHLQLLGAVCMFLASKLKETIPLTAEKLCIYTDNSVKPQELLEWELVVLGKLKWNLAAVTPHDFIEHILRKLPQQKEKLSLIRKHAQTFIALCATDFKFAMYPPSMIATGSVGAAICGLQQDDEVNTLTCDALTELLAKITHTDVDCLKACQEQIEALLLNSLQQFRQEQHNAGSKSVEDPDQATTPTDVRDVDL

D-type cyclins = assay: coexpression in Sf9 cells, coprecipitation (FIG. 3)

T1 sequence (P25322 whole entry): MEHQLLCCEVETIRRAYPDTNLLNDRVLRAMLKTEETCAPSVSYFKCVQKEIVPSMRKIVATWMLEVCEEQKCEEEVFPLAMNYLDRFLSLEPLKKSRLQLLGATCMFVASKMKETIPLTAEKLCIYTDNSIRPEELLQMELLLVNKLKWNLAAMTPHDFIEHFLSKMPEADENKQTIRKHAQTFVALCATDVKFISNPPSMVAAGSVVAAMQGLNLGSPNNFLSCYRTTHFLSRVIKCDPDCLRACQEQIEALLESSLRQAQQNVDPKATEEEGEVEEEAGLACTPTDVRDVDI

binding result (cyclin D1): no binding
B1: Flag-tagged DMP1 deletion mutant M9 (amino acids 234-761) (other)
chain: KLKELRIKHGNDWATIGAALGRSASSVKDRCRLMKDTCNTGKWTEEEEKRLAEVVHELTSTEPGDIVTQGVSWAAVAERVGTRSEKQCRSKWLNYLNWKQSGGTEWTKEDEINLILRIAELDVADENDINWDLLAEGWSSVRSPQWLRSKWWTIKRQIANHKDVSFPVLIKGLKQLHENQKNNPVLLENKSGSGVPNSNCNSSVQHVQIRVARLEDNTAISPSPMAALQIPVQITHVSSTDSPAASADSETITLNSGTLQTFEILPSFPLQPTGTPGTYLLQTSSSQGLPLTLTTNPTLTLAAAAPASPEQIIVHALSPEHLLNTSDNVTVQCHTPRVIIQTVATEDITSSLSQEELTVDSDLHSSDFPEPPDALEADTFPDEIPRPKMTIQPSFNNAHVSKFSDQNSTELMNSVMVRTEEEIADTDLKQEEPPSDLASAYVTEDLESPTIVHQVHQTIDDETILIVPSPHGFIQASDVIDTESVLPLTTLTDPIFQHHQEASNIIGSSLGSPVSEDSKDVEDLVNCH
notes: not shown: Flag-tag

binding result (cyclin D2-DMP1 complex): no binding
B2: catalytically inactive CDK4 mutant (enzyme, mouse, UniProt P30285 1-303, looked up)
chain: MAATRYEPVAEIGVGAYGTVYKARDPHSGHFVALMSVRVPNGGAAGGGLPVSTVREVALLRRLEAFEHPNVVRLMDVCATSRTDRDIKVTLVFEHIDQDLRTYLDKAPPPGLPVETIKDLMRQFLSGLDFLHANCIVHRDLKPENILVTSNGTVKLADFGLARIYSYQMALTPVVVTLWYRAPEVLLQSTYATPVDMWSVGCIFAEMFRRKPLFCGNSEADQLGKIFDLIGLPPEDDWPREVSLPRGAFAPRGPRPVQSVVPEMEESGAQLLLEMLTFNPHKRISAFRALQHSYLHKEESDAE
notes: also called mutant CDK4

percent of DMP1 molecules in stable complexes with D-type cyclins (D-type cyclins): < 15%
B3: DMP1 (cyclin D-binding myb-like protein), murine, full length (protein)
chain: MSTVEEDSDTVTVETVNSVTFTQDTDGNLILHCPQNDPDEVDSEDSTEPPHKRLCLSSEDDQSIDDATPCISVVALPLSENDQSFEVTMTATTEVADDELSEGTVTQIQILQNDQLDEISPLGTEEVSAVSQAWFTTKEDKDSLTNKGHKWKQGMWSKEEIDILMNNIERYLKARGIKDATEIIFEMSKDERKDFYRTIAWGLNRPLFAVYRRVLRMYDDRNHVGKYTPEEIEKLKELRIKHGNDWATIGAALGRSASSVKDRCRLMKDTCNTGKWTEEEEKRLAEVVHELTSTEPGDIVTQGVSWAAVAERVGTRSEKQCRSKWLNYLNWKQSGGTEWTKEDEINLILRIAELDVADENDINWDLLAEGWSSVRSPQWLRSKWWTIKRQIANHKDVSFPVLIKGLKQLHENQKNNPVLLENKSGSGVPNSNCNSSVQHVQIRVARLEDNTAISPSPMAALQIPVQITHVSSTDSPAASADSETITLNSGTLQTFEILPSFPLQPTGTPGTYLLQTSSSQGLPLTLTTNPTLTLAAAAPASPEQIIVHALSPEHLLNTSDNVTVQCHTPRVIIQTVATEDITSSLSQEELTVDSDLHSSDFPEPPDALEADTFPDEIPRPKMTIQPSFNNAHVSKFSDQNSTELMNSVMVRTEEEIADTDLKQEEPPSDLASAYVTEDLESPTIVHQVHQTIDDETILIVPSPHGFIQASDVIDTESVLPLTTLTDPIFQHHQEASNIIGSSLGSPVSEDSKDVEDLVNCH
modifications: multiple phosphorylated forms when made in Sf9 cells (sites not given)
